Numbering of substitutions follows the chain as printed. Values belong to the binder of their own block, whether it stands above or below them.
Tests used:
[1] = target: T1, TNFα (human, UniProt P01375 77-233); experiment: cell-based or functional assay
[2] = target: T2, monomeric His-tagged human FcRn (human, UniProt P55899 24-297; P61769 21-119); experiment: SPR, pH 6.0, KD against that of Ab-wt; pH 6.0; KD ratio to Ab-wt
T2 construct: The b2m chain is an addition from general knowledge; also called hFcRn; neonatal Fc receptor
Protocol: (§1) SPR was performed using a Biacore 3000 instrument with CM5 sensor chips coupled with anti-TNFα IgG1 antibodies (˜500 resonance units (RU)) using amine-coupling chemistry as described by the manufacturer. The coupling was performed by injecting 2.0 ug/mL of each protein in 10 mM sodium acetate, pH 4.5, using the amine-coupling kit (GE Healthcare). […] All SPR experiments were conducted at 25° C. with a flow rate of 40 ul/min. Binding data were zero-adjusted, and reference cell value subtracted. The Langmuir 1:1 ligand binding model provided by the BlAevaluation software (version 4.1) was used to determine the binding kinetics.

[3] = target: T2, monomeric His-tagged human FcRn; experiment: SPR, pH 6.0, KD against that of infliximab; pH 6.0; KD ratio to IFX
Protocol: as §1

[4] = target: T3, CD16a(V) (UniProt P08637 17-208); experiment: SPR (Biacore), His-tagged FcγR captured on anti-His chip, antibody as analyte, single cycle kinetics, 25 °C
T3 construct: Captured on an anti-His tag chip, so it carried a His tag; also called Fcγ receptor CD16a(V)
Protocol: (§2) Affinity to FcγRs was measured by Biacore. A CM5 chip was prepared using standard amine immobilisation Biacore procedures. Upon insertion of a CM5 chip the system was primed and then normalised with BIA-normalizing solution (Biacore Preventative Maintenance Kit 2). The chip was added to the system with PBS-T running buffer; prior to immobilisation the chip surface was primed with three injections of 50 mM NaOH. FcγRs were immobilised on the chip surface using a His-tag capture system. The anti-His tag chip was prepared according to the Biacore kit instructions, with ˜12000 RU's of the antibody deposited on all 4 flow cells. To remove non-covalently bound material from all the chip flow cells, three 30 second 10 mM glycine pH 1.5 washes were performed. The Fcγ receptors were diluted in PBS-T to a range of 0.5-2 μg/mL, with 2.5-5.0 μL injected onto the chip generating capture levels between 60 and 200 RU's. Antibodies were diluted into PBS-T prior to analysis. Single cycle kinetics were used to estimate the steady state affinity. For each single cycle analysis cycle a titration of 5 antibody concentrations were injected over the FcγR ligand and then the dissociation of the complex was measured. The surface was regenerated using the recommended solution, 10 mM glycine pH 1.5 for the anti-His capture surface. A double referencing method was employed in which data from the ligand bound capture surface (fc 2 and 4) were subtracted from the references surfaces where no ligand was captured (fc 1 and 3 respectively). Blank injections of buffer were run for every antibody titration cycle and then subtracted from analyte injection cycles, to correct for small changes in the ligand capture surface. All analysis was performed at 25° C. and the sample rack was incubated at 10° C. during experimental runs. Each experiment was run at least three times.

[5] = target: T4, CD16a(F) (UniProt P08637 17-208); experiment: as above
T4 construct: Captured on an anti-His tag chip, so it carried a His tag
Protocol: as §2

[6] = target: T5, CD16b(NA2) (UniProt O75015 17-200, limits assumed); experiment: as above
T5 construct: Captured on an anti-His tag chip, so it carried a His tag
Protocol: as §2

[7] = target: T2, monomeric His-tagged human FcRn; experiment: SPR (Biacore 3000), antibody amine-coupled, monomeric His-tagged hFcRn as analyte, pH 6.0, 1:1 Langmuir model, 25 °C; pH 6.0
Protocol: as §1

[8] = target: T1, TNFα; experiment: SPR (Biacore), antibody captured on Protein A, TNFα as analyte, single cycle kinetics, 1:1 model, 25 °C
Protocol: Affinity to TNFα was measured by Biacore. A CM5 chip was prepared using standard amine immobilisation Biacore procedures. Upon insertion of a CM5 chip the system was primed and then normalised with BIA-normalising solution (Biacore Preventative Maintenance Kit 2). The chip was added to the system with Phosphate Buffered Saline Tween-20 (PBS-T) running buffer; prior to immobilisation the chip surface was primed with three injections of 50 mM NaOH. Protein A was immobilised on the chip surface. For this, the protein was diluted to 5 μg/mL into 10 mM acetate buffer at pH 4.5 and injected so to generate a bound response of ˜1000 RU's in all 4 flow cells. To remove non-covalently bound material from all the chip flow cells, three 15 second 50 mM NaOH washes were performed. On the Protein A chip, antibody was captured in flow cells 2 and 4, with flow cells 1 and 3 used for reference subtraction. The trial antibodies were diluted in PBS-T to 10 nM and 2.5-7.5 uL injected to obtain 120 RU of captured antibody. […] For each single cycle analysis cycle a titration of 5 analyte concentrations were injected over the ligand and then the dissociation of the complex was measured. The surface was regenerated using glycine pH 1.7. A double referencing method was employed in which data from the ligand bound capture surface (fc 2 and 4) were subtracted from the references surfaces where no ligand was captured (fc 1 and 3 respectively). Blank injections of buffer were run every 3-4 cycles and then subtracted from analyte injection cycles, to correct for small changes in the ligand capture surface. Repeat injections of analyte at the start and end of each analytical run were used to check for sample degradation, or changes in the instrument performance. All analysis was performed at 25° C. and the sample rack was incubated at 10° C. during experimental runs. Each experiment was run at least three times. A 1-to-1 binding model was used to fit the resulting kinetic data.

T3 sequence (P08637 17-208 F176V limits assumed): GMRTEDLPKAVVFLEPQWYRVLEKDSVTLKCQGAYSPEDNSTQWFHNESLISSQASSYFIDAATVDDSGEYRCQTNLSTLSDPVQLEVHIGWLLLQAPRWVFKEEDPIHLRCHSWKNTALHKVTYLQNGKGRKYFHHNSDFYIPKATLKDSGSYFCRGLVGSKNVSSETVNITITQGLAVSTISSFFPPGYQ
T1 sequence (P01375 77-233 limits assumed): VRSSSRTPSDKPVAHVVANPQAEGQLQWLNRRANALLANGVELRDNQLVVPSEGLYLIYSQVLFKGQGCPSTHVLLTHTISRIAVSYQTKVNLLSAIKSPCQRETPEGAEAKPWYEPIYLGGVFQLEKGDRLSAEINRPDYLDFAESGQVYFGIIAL
T5 sequence (O75015 17-200 N65S limits assumed): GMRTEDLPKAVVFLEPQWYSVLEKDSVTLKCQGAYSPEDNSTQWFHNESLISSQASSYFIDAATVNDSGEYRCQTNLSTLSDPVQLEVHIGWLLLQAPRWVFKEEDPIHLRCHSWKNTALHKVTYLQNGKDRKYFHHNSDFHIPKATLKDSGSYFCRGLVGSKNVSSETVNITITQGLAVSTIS
T4 sequence (P08637 17-208 limits assumed): as the sequence (P08637 17-208 F176V limits assumed) above, with V160F counted along it

- IC50 (read off the curve), L929 TNFα neutralisation [upper panel] [1]: ~7 ng/mL
- Fold change from wt [2]: 6.4 fold
- Fold change from IFX [3]: 2.7 fold
- Kd [4]: 68.7 nM
- Kd [5]: 110 nM
- Kd [6]: 470 nM
- Kd [7]: 157 nM
- Kd [8]: 0.00288 nM
- koff [8]: 3.04e-05 s⁻¹
- kon [8]: 1.13e+07 M⁻¹ s⁻¹
B1: Ab-A-DLE-PVAΔG (antibody, human IgG1, kappa)
heavy: EVQLVESGGGLVQPGGSLRLSCKASGIDFNNYGIGWVRQAPGKGLEWITYIYPGFAITNFANSVKGRFTISSDNSKNTVYLQMNSLRAEDTAVYYCARDPVYATSSGYFDLWGQGTLVTVSSASTKGPSVFPLAPSSKSTSGGTAALGCLVKDYFPEPVTVSWNSGALTSGVHTFPAVLQSSGLYSLSSVVTVPSSSLGTQTYICNVNHKPSNTKVDKKVEPKSCDKTHTCPPCPAPPVAGPDVFLFPPKPKDTLMISRTPEVTCVVVDVSHEDPEVKFNWYVDGVEVHNAKTKPREEQYNSTYRVVSVLTVLHQDWLNGKEYKCKVSNKALPLPEEKTISKAKGQPREPQVYTLPPSREEMTKNQVSLTCLVKGFYPSDIAVEWESNGQPENNYKTTPPVLDSDGSFFLYSKLTVDKSRWQQGNVFSCSVMHEALHAHYTQKSLSLSPGK
light: DIQMTQSPSSLSASVGDRVTIKCQASQSIFSGLAWYQQKPGKAPKLLIYGASKLASGVPSRFSGSGSGTEFTLTISGLQPADFATYYCQSYYYSSSSSDGSYAFGGGTKLTVLGRTVAAPSVFIFPPSDEQLKSGTASVVCLLNNFYPREAKVQWKVDNALQSGNSQESVTEQDSKDSTYSLSSTLTLSKADYEKHKVYACEVTHQGLSSPVTKSFNRGEC

- IC50 (read off the curve), L929 TNFα neutralisation [lower panel] [1]: ~7 ng/mL
- Kd [4]: 184 nM
- Kd [6]: > 3000 nM
- Kd [7]: 1000 nM
- Kd [8]: 0.00413 nM
- koff [8]: 3.45e-05 s⁻¹
- kon [8]: 8.37e+06 M⁻¹ s⁻¹
B2: Ab-wt (antibody, human IgG1, kappa)
heavy: not shown
light: B1 light
notes: Human IgG1 anti-TNFα antibody with a wild-type Fc region; also called parent antibody; wild-type antibody

- IC50 (read off the curve), L929 TNFα neutralisation [lower panel] [1]: ~6 ng/mL
- Fold change from wt [2]: 11.1 fold
- Fold change from IFX [3]: 4.7 fold
- Kd [4]: 117 nM
- Kd [6]: 1030 nM
- Kd [7]: 90 nM
- Kd [8]: 0.00157 nM
- koff [8]: 1.28e-05 s⁻¹
- kon [8]: 8.14e+06 M⁻¹ s⁻¹
B3: Ab-YTE-DLE-PVAΔG (antibody, human IgG1, kappa)
heavy: B1 heavy with M256Y, S258T, T260E, A438N
light: B1 light

- IC50 (read off the curve), L929 TNFα neutralisation [lower panel] [1]: ~9 ng/mL
- Kd [4]: 260 nM
- Kd [6]: 5180 nM
- Kd [8]: 0.00251 nM
- koff [8]: 2.19e-05 s⁻¹
- kon [8]: 9.16e+06 M⁻¹ s⁻¹
B4: Ab-A-AEA-PVAΔG (antibody, human IgG1, kappa)
heavy: B1 heavy with D243S, K330A, L334A, E337A
light: B1 light

Reference: US20230295288A1 (TILLOTTS PHARMA, published 2023)
